This is an account of results in patent US20100278829A1, “DUAL INHIBITION OF IMMUNOPHILIN/CYCLOPHILIN FAMILY MEMBERS AND EMMPRIN IMMUNOGLOBULIN RECEPTOR SUPERFAMILY MEMBERS” (priority 2009, published 2010).

This test deals with T1, CypA (Homo sapiens, UniProt P62937).
T1 construct: CypA was purified as previously described; made in house; host or cells: E. coli BL21 (DE3)
The experiment in a line: NMR titration of 15N-CypA, binding isotherms. Conditions: chemical shift changes, 25° C. The method, then: NMR sample preparation, spectroscopy, and data analysis. All NMR spectra were collected at 25° C. on a Varian 600-, 720- , 800-, or 900-MHz spectrometer in 50 mM NaPO4, pH 6.5, 150 mM NaCl, and 50 mM imidazole supplemented with 7% D2O. There were only modest changes to the resonance positions with imidazole present (data not shown), yet imidazole did increase the lifetime of each sample slightly and, thus, was maintained in all samples. Samples utilized for assignment purposes contained 0.5-1 mM protein, while all samples utilized for titration purposes contained 0.5 mM protein with the indicated final concentration of the titrant. All spectra were processed using NMRPipe software65 and analyzed using CCPNmr software.66 Unless otherwise noted, all pulse sequences were obtained from standard Varian Biopack libraries. Transverse relaxation optimized spectroscopy (i.e., TROSY-based) HSQC experiments were used only when noted.
NMR titration experiments were first conducted using 15N-CypA with unlabeled CD147, and chemical shift changes were only observed for extracellular recombinant CD147 constructs that included the membrane-proximal region of CD147 residues 206-214. […] However, both extracellular cyclophilin ligands of CD147, CypA and CypB, are known to readily traverse the membrane. […]

In general, Kd refers to the constant that tells how readily two partners part at equilibrium.

Some results are limits rather than exact numbers.

T1 sequence (P62937 whole entry): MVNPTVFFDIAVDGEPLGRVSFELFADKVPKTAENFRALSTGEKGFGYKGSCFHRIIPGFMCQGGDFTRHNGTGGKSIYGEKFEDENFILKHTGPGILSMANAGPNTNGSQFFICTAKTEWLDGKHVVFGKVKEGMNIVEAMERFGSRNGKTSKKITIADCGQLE

B1: CD147: extracellular recombinant CD147 constructs that include membrane-proximal residues 206-214 (protein, UniProt P35613 138-323, looked up)
extracellular domain: EPGTVFTTVEDLGSKILLTCSLNDSATEVTGHRWLKGGVVLKEDALPGQKTEFKVDSDDQWGEYSCVFLPEPMGTANIQLHGPPRVKAVKSSEHINEGETAMLVCKSESVPPVTDWAWYKITDSEDKALMNGSESRFFVSSSQGRSELHIENLNMEADPGQYRCNGTSSKGSDQAIITLRVRSHLA
modifications: extracellular domain
For the molecule B1, the Kd was > 1000 µM.
